The test has as its target WIV16 RBD ([change] domain) (bat SARS-like coronavirus WIV16).

Take human monoclonal antibody 47D11: the IC50 of neutralization of WIV16-S pseudotyped VSV (luciferase) on VeroE6 cells turned out to be 0.165 µg/mL.
